Test results reported in article PMC6264593.

Assays:
Experiment in all cases: SPR; Fcγ receptor affinities (KD) by Surface Plasma Resonance; mAb up to 6.4 µM
hFcγRI (human) = hFcγRI (human) (UniProt P12314)
hFcγRIIIa (human) = hFcγRIIIa (human) (UniProt P08637)
hFcγRIIa (human) = hFcγRIIa (human) (UniProt P12318)
hFcγRIIb (human) = hFcγRIIb (human) (UniProt P31994)
mFcγRIII (mouse) = mFcγRIII (mouse) (UniProt P08508)
mFcγRIIb (mouse) = mFcγRIIb (mouse) (UniProt P08101)
mFcγRIV (mouse) = target: mFcγRIV (mouse)
mFcγRIV (mouse), sequence (A0A0B4J1G0 21-249): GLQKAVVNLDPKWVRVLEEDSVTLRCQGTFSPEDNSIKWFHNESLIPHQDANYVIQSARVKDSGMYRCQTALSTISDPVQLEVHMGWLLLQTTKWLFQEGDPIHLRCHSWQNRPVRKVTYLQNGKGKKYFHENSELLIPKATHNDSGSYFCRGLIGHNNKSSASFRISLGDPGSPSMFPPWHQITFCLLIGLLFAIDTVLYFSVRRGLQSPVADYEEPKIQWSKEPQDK

mFcγRIIb (mouse), sequence (P08101 30-330): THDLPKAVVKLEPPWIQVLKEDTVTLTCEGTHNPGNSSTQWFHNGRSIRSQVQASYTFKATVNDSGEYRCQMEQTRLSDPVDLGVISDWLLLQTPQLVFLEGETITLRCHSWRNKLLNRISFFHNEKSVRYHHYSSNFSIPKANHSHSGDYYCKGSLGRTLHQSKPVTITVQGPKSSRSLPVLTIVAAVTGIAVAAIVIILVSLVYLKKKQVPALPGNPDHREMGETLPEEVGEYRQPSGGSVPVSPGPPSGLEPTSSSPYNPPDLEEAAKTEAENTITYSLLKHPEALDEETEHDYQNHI
hFcγRIIb (human), sequence (P31994 43-310): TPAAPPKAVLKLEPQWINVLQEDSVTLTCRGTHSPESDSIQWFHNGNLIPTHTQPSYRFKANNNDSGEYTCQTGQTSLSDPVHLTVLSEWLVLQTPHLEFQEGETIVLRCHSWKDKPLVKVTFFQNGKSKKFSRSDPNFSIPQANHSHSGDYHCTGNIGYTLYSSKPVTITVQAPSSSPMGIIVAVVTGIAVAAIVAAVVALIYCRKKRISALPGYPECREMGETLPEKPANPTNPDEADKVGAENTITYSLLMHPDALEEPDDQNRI
hFcγRI (human), sequence (P12314 16-374): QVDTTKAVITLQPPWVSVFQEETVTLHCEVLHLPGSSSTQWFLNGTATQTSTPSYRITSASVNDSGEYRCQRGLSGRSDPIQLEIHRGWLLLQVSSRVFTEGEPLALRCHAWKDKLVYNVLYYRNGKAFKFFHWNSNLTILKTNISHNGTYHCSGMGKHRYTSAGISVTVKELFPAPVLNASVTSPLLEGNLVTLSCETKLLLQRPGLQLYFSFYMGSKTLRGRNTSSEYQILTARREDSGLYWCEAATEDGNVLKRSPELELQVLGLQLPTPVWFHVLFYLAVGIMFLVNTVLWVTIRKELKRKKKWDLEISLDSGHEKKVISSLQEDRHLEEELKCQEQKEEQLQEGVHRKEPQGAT
hFcγRIIa (human), sequence (P12318 34-317): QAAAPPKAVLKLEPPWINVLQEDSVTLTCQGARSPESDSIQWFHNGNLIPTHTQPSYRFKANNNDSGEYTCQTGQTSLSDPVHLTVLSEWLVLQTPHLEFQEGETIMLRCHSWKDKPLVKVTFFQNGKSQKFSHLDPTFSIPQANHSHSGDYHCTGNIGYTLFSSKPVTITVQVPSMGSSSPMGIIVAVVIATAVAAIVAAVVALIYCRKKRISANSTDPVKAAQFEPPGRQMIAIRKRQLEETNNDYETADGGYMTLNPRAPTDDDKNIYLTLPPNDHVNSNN
hFcγRIIIa (human), sequence (P08637 17-254): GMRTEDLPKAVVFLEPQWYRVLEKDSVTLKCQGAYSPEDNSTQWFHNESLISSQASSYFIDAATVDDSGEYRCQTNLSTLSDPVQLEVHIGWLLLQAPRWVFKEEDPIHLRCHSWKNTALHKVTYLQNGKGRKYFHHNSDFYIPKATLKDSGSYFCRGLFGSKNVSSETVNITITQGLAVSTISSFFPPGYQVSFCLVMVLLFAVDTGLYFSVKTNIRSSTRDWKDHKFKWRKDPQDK
mFcγRIII (mouse), sequence (P08508 31-261): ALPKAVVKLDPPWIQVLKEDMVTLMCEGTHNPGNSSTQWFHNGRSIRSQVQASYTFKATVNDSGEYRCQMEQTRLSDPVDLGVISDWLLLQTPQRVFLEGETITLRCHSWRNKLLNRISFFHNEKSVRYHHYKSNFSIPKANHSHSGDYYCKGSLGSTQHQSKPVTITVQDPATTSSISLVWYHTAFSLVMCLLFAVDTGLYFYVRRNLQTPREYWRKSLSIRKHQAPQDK

3D6-huIgG1 (antibody) was tested, and the Kd (hFcγRI (human)) was 0.86 nM, the Kd (hFcγRIIIa (human)) was 472 nM and the Kd (hFcγRIIa (human)) was 794 nM. For the same substance, the Kd (hFcγRIIb (human)) was 2060 nM.
With 3D6mIgG2b (antibody) the Kd (mFcγRIII (mouse)) was 119 nM, the Kd (mFcγRIIb (mouse)) was 456 nM and the Kd (mFcγRIV (mouse)) was 22 nM.
With SAR228810 (antibody) the Kd (hFcγRI (human)) was 244 nM, the Kd (hFcγRIIa (human)) was 2640 nM and the Kd (hFcγRIIb (human)) was 1830 nM.
SAR255952 (antibody) was tested, and the Kd (mFcγRIIb (mouse)) was > 4500 nM.
